Target: HA-JMJD5 (wildtype, pEF6) (human, UniProt Q8N371 1-416)
Test: co-IP

Sequence of HA-JMJD5 (wildtype, pEF6) (Q8N371 whole entry): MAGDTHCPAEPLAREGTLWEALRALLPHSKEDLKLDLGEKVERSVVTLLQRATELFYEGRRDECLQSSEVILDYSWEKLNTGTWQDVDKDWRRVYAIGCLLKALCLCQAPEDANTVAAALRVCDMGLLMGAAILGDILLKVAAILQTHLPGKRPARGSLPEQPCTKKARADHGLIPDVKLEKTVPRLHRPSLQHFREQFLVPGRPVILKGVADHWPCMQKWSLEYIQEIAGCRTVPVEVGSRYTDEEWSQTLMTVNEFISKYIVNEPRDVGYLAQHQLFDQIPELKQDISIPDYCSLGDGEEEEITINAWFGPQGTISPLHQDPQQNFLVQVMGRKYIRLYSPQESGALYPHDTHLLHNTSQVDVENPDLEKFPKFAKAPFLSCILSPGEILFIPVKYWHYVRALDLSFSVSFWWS

B1: RCCD1-FLAG (wildtype, pIHZ) (natural protein)
chain: MAEERPGAWFGFGFCGFGQELGSGRGRQVHSPSPLRAGVDICRVSASWSYTAFVTRGGRLELSGSASGAAGRCKDAWASEGLLAVLRAGPGPEALLQVWAAESALRGEPLWAQNVVPEAEGEDDPAGEAQAGRLPLLPCARAYVSPRAPFYRPLAPELRARQLELGAEHALLLDAAGQVFSWGGGRHGQLGHGTLEAELEPRLLEALQGLVMAEVAAGGWHSVCVSETGDIYIWGWNESGQLALPTRNLAEDGETVAREATELNEDGSQVKRTGGAEDGAPAPFIAVQPFPALLDLPMGSDAVKASCGSRHTAVVTRTGELYTWGWGKYGQLGHEDTTSLDRPRRVEYFVDKQLQVKAVTCGPWNTYVYAVEKGKS
  binding result: binds
